Experimental data: patent publication US20070141048A1 (SYMPHOGEN A S, published 2007)

Molecular target: T1, Ovalbumin (UniProt P01012 2-386)
T1 sequence: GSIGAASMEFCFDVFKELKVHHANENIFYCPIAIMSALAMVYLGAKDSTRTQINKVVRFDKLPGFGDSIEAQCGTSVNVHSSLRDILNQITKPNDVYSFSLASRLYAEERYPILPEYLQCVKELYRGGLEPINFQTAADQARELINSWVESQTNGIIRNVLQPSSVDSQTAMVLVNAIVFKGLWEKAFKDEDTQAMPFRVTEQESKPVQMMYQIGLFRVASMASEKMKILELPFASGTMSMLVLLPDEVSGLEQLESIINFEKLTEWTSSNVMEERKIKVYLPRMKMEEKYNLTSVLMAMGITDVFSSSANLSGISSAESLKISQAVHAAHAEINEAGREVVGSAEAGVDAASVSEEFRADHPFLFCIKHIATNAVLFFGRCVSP
Assay: ELISA, periplasmic extract on coated Ovalbumin

B1: g060f01 (Fab, V domains shown)
VH: QVQLQQSGGGVVQPGRSLRLSCAASGFAFRDYAMHWVRQAPGKGLEWMGVISFNGDQIFYADSMKGRFTISRENSKNTLHLRMNSLRPEDTAVYYCARARLLFCSGGRCDMDSWGQGTLVTVS
VL: EIVMTQSPSFLSASVGDRVTITCRASQDIITYLAWYQQKPGKAPEVLIFGASTLQSGVPSRFSGSGSGTEFTLTISSLQPEDFATYYCQQIIRYPRTFGQGTRVEIK
binding result: no binding (tested: 10 µg/ml Ovalbumin coat)

B2: g060a11 (Fab, V domains shown)
VH: KVQLVESGGGLVKPGGSLRLSCVVSGFPLNRYTMNWVRQAPGKGLEWLSSISSTSSYIYYADSVKGRFTISRDNAKNSLFLQMNSLRADDTALYFCASGNTHDYWGQGTLVTVS
VL: DVVMTQSPSSLSASVGDRVTITCRASQSININLNWFQQKPGKAPNLLIYSASTLQTGVPSRFSGSGSGTEFTLTISSLQPEDFATYYCQQIYSHVRTFGQGTKVEIK
binding result: no binding (tested: 10 µg/ml Ovalbumin coat)

B3: g060c12 (Fab, V domains shown)
VH: KVQLVQSGGGLVKPGGSLRLSCVVSGFPLNRYIMNWVRQTPGKGLEWLSSISSTSSYIYYADSAKGRFTISRDNAKNSLFLQMNSLRAEDTGLYYCASGNTHDYWGQGTLVTVS
VL: EIVLTQSPSSLSASVGDRVTTTCRTSQSIFINLNWFQQKPGKAPKLLIYSASTLQTGVPSRFSGSGSGTEFTLTISSLQPEDFATYYCQQIYSQVRTFGQGTKVEIK
binding result: no binding (tested: 10 µg/ml Ovalbumin coat)

B4: g060f03 (Fab, V domains shown)
VH: QVQLVQSGGGLVKPGGSLRLSCAASGFTFSNAWMSWVRQAPGKGLEWVGHVKSMTDGGTTDYAAPVKGRFTISRDDSENTLYLQMNSLKTDDTAVYYCTTHDYWGQGTLVTVS
VL: EIVMTQSPPFLSASVGDRVTITCRASQGLSTYLAWYQVKPGKAPKLLIYAASTLQSGVPSRFSGSGSGTEFTLTINSLQPEDFATYYCQQLDTYPLTLGGGTKVEIK
binding result: no binding (tested: 10 µg/ml Ovalbumin coat)

B5: g060a02 (Fab, V domains shown)
VH: QVQLQQSGGGLVKPGGSLRLSCAASGFTFSSYSMNWVRQAPGKGLEWVSSISSSSSYIYYADSVKGRFTISRDNAKNSLYLQMNSLRAEDTAVYYCARRPGWAATRAAGAFDIWGQGTMVTVS
VL: EIVLTQSPSSLSASVGDRVTITCRASQGISNYLAWYQQKPGKVPKLLIYAASTLQSGVPSRFSGSGSGTDFTLTISSLQPEDVATYYCQKYNSAPYTFGQGTKLEIK
binding result: no binding (tested: 10 µg/ml Ovalbumin coat)

B6: g060d03 (Fab, V domains shown)
VH: QMQLVQSGAEVKKPGTSVRVSCKTSGGYVFSWVRQAPGQGPEWMGGIITNFGTTNYAQKFQGRVTITADKSTNTVYMDLSNLTSEDTAVYYCARAPRGTSTIAARFNRYFFDSWGQGTLVTVS
VL: DIQMTQSPGTLSLSPGERATLSCRASQSVNSDNLAWYQQKPGQAPRLLMSGATSRATDVPDRFSGSGSGTDFTLTISRLEPEDFAVYYCHQYGSSDNTFGQGTKLEIK
binding result: no binding (tested: 10 µg/ml Ovalbumin coat)

B7: g060f08 (Fab, V domains shown)
VH: KVQLVQSGAEVKKPGTSVRVSCKTSGGYVFSWVRQAPGQGPEWMGGIITNFGTTNYAQKFQGRVTITADKSTNTVYMDLSNLTSEDTAVYYCARAPRGTSTIAARFNRYFFDSWGQGTLVTVS
VL: DVVMTQSPGTLSLSPGERATLSCRASQSVNSDNLAWYQQKPGQAPRLLMSGATSRATDIPDRFSGSGSGTDFTLTISRLEPEDFAVYYCHQYGSSDNTFGQGTKLEIK
binding result: no binding (tested: 10 µg/ml Ovalbumin coat)

B8: g060b05 (Fab, V domains shown)
VH: QVQLVQSGAEVKKLGTSVRVSCKTPGGYVFSWVRQAPGQGPEWMGGIITNFGTTNYARKFQGRITVTADKSTNTVYMDLSNLASEDTAVYYCARAPRGTSTIAARFNRYFFDSWGQGTLVTVS
VL: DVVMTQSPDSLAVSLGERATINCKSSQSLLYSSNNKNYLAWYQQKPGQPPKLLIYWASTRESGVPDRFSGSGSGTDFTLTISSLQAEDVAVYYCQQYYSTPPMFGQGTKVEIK
binding result: no binding (tested: 10 µg/ml Ovalbumin coat)
